Test results published in patent publication US20210171596A1 (published 2021).
Numbering of substitutions follows the chain as printed. In names and notes the source's numbering stands. Values belong to the binder of their own block, whether it stands above or below them.

How the values were obtained:
IL10R1-Fc [1] = biological target: T1, IL10R1-Fc (human, UniProt Q13651 22-235); assay: BLI
T1 chain: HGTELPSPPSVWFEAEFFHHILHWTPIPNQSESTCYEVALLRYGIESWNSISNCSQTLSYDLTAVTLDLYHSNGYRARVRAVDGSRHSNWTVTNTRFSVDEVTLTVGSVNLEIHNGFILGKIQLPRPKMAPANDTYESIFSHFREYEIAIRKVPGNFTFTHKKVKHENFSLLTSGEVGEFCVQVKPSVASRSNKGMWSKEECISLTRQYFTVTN

IL10R1-Fc [2] = biological target: T1, IL10R1-Fc; assay: BLI; marked *

- Kd (IL10R1-Fc [1]): 5.05 nM
B1: XENP14246 (WT) (protein)
chain 1: EPKSSDKTHTCPPCPAPPVAGPSVFLFPPKPKDTLMISRTPEVTCVVVDVKHEDPEVKFNWYVDGVEVHNAKTKPREEEYNSTYRVVSVLTVLHQDWLNGKEYKCKVSNKALPAPIEKTISKAKGQPREPQVYTLPPSREEMTKNQVSLTCDVSGFYPSDIAVEWESDGQPENNYKTTPPVLDSDGSFFLYSKLTVDKSRWEQGDVFSCSVMHEALHNHYTQKSLSLSPGK
chain 2: SPGQGTQSENSCTHFPGNLPNMLRDLRDAFSRVKTFFQMKDQLDNLLLKESLLEDFKGYLGCQALSEMIQFYLEEVMPQAENQDPDIKAHVNSLGENLKTLRLRLRRCHRFLPCENGGGSGGKSKAVEQVKNAFNKLQEKGIYKAMSEFDIFINYIEAYMTMKIRNEPKSSDKTHTCPPCPAPPVAGPSVFLFPPKPKDTLMISRTPEVTCVVVDVKHEDPEVKFNWYVDGVEVHNAKTKPREEQYNSTYRVVSVLTVLHQDWLNGKEYKCKVSNKALPAPIEKTISKAKGQPREPQVYTLPPSREQMTKNQVKLTCLVKGFYPSDIAVEWESNGQPENNYKTTPPVLDSDGSFFLYSKLTVDKSRWQQGNVFSCSVMHEALHNHYTQKSLSLSPGK

- Kd (IL10R1-Fc [1]): 1.23 nM
B2: XENP25760 (D44N) (protein)
chain 1: B1 chain 1
chain 2: B1 chain 2 with D44N

- Kd (IL10R1-Fc [1]): 16.4 nM
B3: XENP25759 (L43V) (protein)
chain 1: B1 chain 1
chain 2: B1 chain 2 with L43V

- Kd (IL10R1-Fc [2]): 23.8 nM
B4: XENP25767 (D144N) (protein)
chain 1: B1 chain 1
chain 2: B1 chain 2 with D150N

- Kd (IL10R1-Fc [1]): 10.6 nM
B5: XENP25761 (N45D) (protein)
chain 1: B1 chain 1
chain 2: B1 chain 2 with N45D

- Kd (IL10R1-Fc [1]): 14.4 nM
B6: XENP25763 (I87A) (protein)
chain 1: B1 chain 1
chain 2: B1 chain 2 with I87A

- Kd (IL10R1-Fc [2]): 12.4 nM
B7: XENP25757 (D41N) (protein)
chain 1: B1 chain 1
chain 2: B1 chain 2 with D41N

- Kd (IL10R1-Fc [1]): 3.86 nM
B8: XENP25754 (D28N) (protein)
chain 1: B1 chain 1
chain 2: B1 chain 2 with D28N

- Kd (IL10R1-Fc [1]): 8.14 nM
B9: XENP25753 (N21D) (protein)
chain 1: B1 chain 1
chain 2: B1 chain 2 with N21D

- Kd (IL10R1-Fc [2]): 6.13 nM
B10: XENP25755 (Q38E) (protein)
chain 1: B1 chain 1
chain 2: B1 chain 2 with Q38E

- Kd (IL10R1-Fc [1]): 4.76 nM
B11: XENP25756 (M39T) (protein)
chain 1: B1 chain 1
chain 2: B1 chain 2 with M39T

- Kd (IL10R1-Fc [2]): 12.4 nM
B12: XENP25768 (E151Q) (protein)
chain 1: B1 chain 1
chain 2: B1 chain 2 with E157Q

- Kd (IL10R1-Fc [1]): 7.3 nM
B13: XENP25758 (Q42E) (protein)
chain 1: B1 chain 1
chain 2: B1 chain 2 with Q42E
